These results are taken from paper PMC4782060, “Mechanism of intermediate filament recognition by plakin repeat domains revealed by envoplakin targeting of vimentin” (Nature Communications, 2016).

The labels stand for the following.
B6: envoplakin PRD K1847E (control mutation) (domain or fragment, human, UniProt Q92817 1822-2014, looked up)
chain: DDSFPIAGIYDTTTDNKCSIKTAVAENMLDPITGQKLLEAQAATGGIVDLLSRERYSVHKAMERGLIENTSTQRLLNAQKAFTGIEDPVTKKRLSVGEAVQKGWMPRESVLPHLQVQHLTGGLIDPKRTGRIPIQQALLSGMISEELAQLLQDESSYEKDLTDPISKERLSYKEAMGRCRKDPLSGLLLLPAA
notes: envoplakin, human, plakin repeat domain, residues Asp1822-Ala2014, mutant K1847E; 15N-labelled for NMR; source: E. coli BL21(DE3), purified (HisTrap, TEV cleavage, S75 size exclusion)
B7: envoplakin PRD K1901E (domain or fragment, human, UniProt Q92817 1822-2014, looked up)
chain: DDSFPIAGIYDTTTDNKCSIKTAVAKNMLDPITGQKLLEAQAATGGIVDLLSRERYSVHKAMERGLIENTSTQRLLNAQEAFTGIEDPVTKKRLSVGEAVQKGWMPRESVLPHLQVQHLTGGLIDPKRTGRIPIQQALLSGMISEELAQLLQDESSYEKDLTDPISKERLSYKEAMGRCRKDPLSGLLLLPAA
notes: envoplakin, human, plakin repeat domain, residues Asp1822-Ala2014, mutant K1901E; 15N-labelled for NMR; source: E. coli BL21(DE3), purified (HisTrap, TEV cleavage, S75 size exclusion)
B8: envoplakin PRD R1914E (domain or fragment, human, UniProt Q92817 1822-2014, looked up)
chain: DDSFPIAGIYDTTTDNKCSIKTAVAKNMLDPITGQKLLEAQAATGGIVDLLSRERYSVHKAMERGLIENTSTQRLLNAQKAFTGIEDPVTKKELSVGEAVQKGWMPRESVLPHLQVQHLTGGLIDPKRTGRIPIQQALLSGMISEELAQLLQDESSYEKDLTDPISKERLSYKEAMGRCRKDPLSGLLLLPAA
notes: envoplakin, human, plakin repeat domain, residues Asp1822-Ala2014, mutant R1914E; 15N-labelled for NMR; also called K1914E (as printed once in the text); source: E. coli BL21(DE3), purified (HisTrap, TEV cleavage, S75 size exclusion)

Conditions in all cases: both partners purified
For experiment [1], the target named is T1, wild-type human envoplakin plakin repeat domain (PRD), residues Asp1822-Ala2014 (human, UniProt Q92817 1822-2014).
T1 construct: envoplakin, human, plakin repeat domain, residues Asp1822-Ala2014; vector pProEX-HTC; also called envoplakin PRD; WT; source: E. coli BL21(DE3), purified (HisTrap, TEV cleavage, S75 size exclusion)
T1 sequence (looked up): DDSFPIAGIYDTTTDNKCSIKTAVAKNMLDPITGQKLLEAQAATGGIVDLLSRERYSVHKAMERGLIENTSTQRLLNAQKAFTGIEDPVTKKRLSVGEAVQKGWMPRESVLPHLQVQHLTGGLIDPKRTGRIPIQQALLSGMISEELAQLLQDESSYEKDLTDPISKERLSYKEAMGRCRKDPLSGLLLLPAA
The experiment can be described thus: SPR; His-tagged vimentin^ROD (wild type or mutant) immobilised on nickel-coated chips, Biacore 3000; envoplakin PRD 0-100 μM flowed over; 150 mM NaCl, 10 mM Hepes, 3 mM EDTA, 0.005% Surfactant P20, pH 7.4. (In SPR one partner is held on a chip, and binding of the other changes the refractive index at the surface.)

In experiment [2] the target is T2, envoplakin PRD K2002E (control mutation) (human, UniProt Q92817 1822-2014, K2002E).
T2 construct: envoplakin, human, plakin repeat domain, residues Asp1822-Ala2014, mutant K2002E; 15N-labelled for NMR; source: E. coli BL21(DE3), purified (HisTrap, TEV cleavage, S75 size exclusion)
T2 sequence (looked up): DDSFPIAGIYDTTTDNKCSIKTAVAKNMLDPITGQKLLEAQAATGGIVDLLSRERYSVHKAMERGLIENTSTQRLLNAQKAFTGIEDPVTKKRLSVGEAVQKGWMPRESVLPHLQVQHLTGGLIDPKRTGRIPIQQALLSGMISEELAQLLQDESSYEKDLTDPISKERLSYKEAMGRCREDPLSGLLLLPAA
The description is as above.

The experiment “envoplakin PRD K1901E” has as its target B7. The description is as above.
The experiment “envoplakin PRD R1914E” deals with B8. The description is as above.
The target of experiment [3] is B6. Described as above.
Experiment [4] deals with T3, full-length human vimentin (residues Met1-Glu466) (human, UniProt P08670 1-466).
T3 construct: vimentin, human, residues Met1-Glu466; Vector pET21a+; also called vimentin^FL; full-length vimentin
T3 sequence (P08670 whole entry, the tested form may be a part): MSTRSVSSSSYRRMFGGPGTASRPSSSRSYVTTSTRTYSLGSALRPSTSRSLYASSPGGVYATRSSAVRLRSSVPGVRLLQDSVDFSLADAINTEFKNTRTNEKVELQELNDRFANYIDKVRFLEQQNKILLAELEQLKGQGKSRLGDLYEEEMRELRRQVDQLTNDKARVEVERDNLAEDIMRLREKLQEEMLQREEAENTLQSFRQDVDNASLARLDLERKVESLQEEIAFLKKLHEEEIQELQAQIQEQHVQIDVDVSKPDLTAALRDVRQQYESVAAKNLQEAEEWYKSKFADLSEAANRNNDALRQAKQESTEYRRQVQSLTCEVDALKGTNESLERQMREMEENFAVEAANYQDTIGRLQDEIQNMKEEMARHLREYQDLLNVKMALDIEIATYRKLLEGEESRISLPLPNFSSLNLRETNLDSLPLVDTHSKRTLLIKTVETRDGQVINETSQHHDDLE
Put plainly: NMR titration; unlabelled full-length vimentin (10, 50, 100, 200 μM) added to 100 μM 15N-labelled wild-type or mutant envoplakin PRD; 1H,15N HSQC peak intensities; 20 mM Tris-Cl, pH 7, 1 mM DTT, no salt, 298 K.

B1: vimentin^ROD D112K (domain or fragment)
chain: not shown
notes: vimentin, human, rod residues 99-249, mutant D112K
B1: the affinity in experiment [1], expressed as Kd, was 106 ± 45.6 µM.

B2: vimentin^ROD construct, vimentin residues 99-249 (coils 1A and 1B of the central rod domain) (domain or fragment)
chain: not shown
notes: vimentin, human, rod residues 99-249, coils 1A and 1B; Vector pET21a+; His tag retained for SPR; also called WT; envoplakin^ROD (as printed once in the text)
As for B2, the Kd (as a rule, the concentration at which binding is half-saturated) in experiment [1] worked out at 19.1 ± 1.3 µM; in experiment [2] it was 14.5 ± 0.4 µM; with envoplakin PRD K1901E, 69.3 ± 10.6 µM; with envoplakin PRD R1914E it was 132 ± 34.7 µM; in experiment [3], 26.5 ± 2 µM.

B3: vimentin^ROD D119K (domain or fragment)
chain: not shown
notes: vimentin, human, rod residues 99-249, mutant D119K
As for B3, binding in experiment [1] was put at a Kd of 48.4 ± 5.5 µM.

B4: vimentin^ROD double mutant D112K/D119K (domain or fragment)
chain: not shown
notes: vimentin, human, rod residues 99-249, double mutant D112K/D119K
With B4, the Kd in experiment [1] stood at 1500 ± 139 µM.

B5: envoplakin PRD R1895E (domain or fragment, human, UniProt Q92817 1822-2014, looked up)
chain: DDSFPIAGIYDTTTDNKCSIKTAVAKNMLDPITGQKLLEAQAATGGIVDLLSRERYSVHKAMERGLIENTSTQELLNAQKAFTGIEDPVTKKRLSVGEAVQKGWMPRESVLPHLQVQHLTGGLIDPKRTGRIPIQQALLSGMISEELAQLLQDESSYEKDLTDPISKERLSYKEAMGRCRKDPLSGLLLLPAA
notes: envoplakin, human, plakin repeat domain, residues Asp1822-Ala2014, mutant R1895E; 15N-labelled for NMR; source: E. coli BL21(DE3), purified (HisTrap, TEV cleavage, S75 size exclusion)
As for B5, in experiment [4], the binding result was “binds”.

On to B6, for which, in experiment [4], the binding result is “binds”.

Take B7: the binding result in experiment [4] was “binds”.

Regarding B8, the binding result in experiment [4] was “binds”.

B9: envoplakin PRD R1990E (control mutation) (domain or fragment, human, UniProt Q92817 1822-2014, looked up)
chain: DDSFPIAGIYDTTTDNKCSIKTAVAKNMLDPITGQKLLEAQAATGGIVDLLSRERYSVHKAMERGLIENTSTQRLLNAQKAFTGIEDPVTKKRLSVGEAVQKGWMPRESVLPHLQVQHLTGGLIDPKRTGRIPIQQALLSGMISEELAQLLQDESSYEKDLTDPISKEELSYKEAMGRCRKDPLSGLLLLPAA
notes: envoplakin, human, plakin repeat domain, residues Asp1822-Ala2014, mutant R1990E; 15N-labelled for NMR; source: E. coli BL21(DE3), purified (HisTrap, TEV cleavage, S75 size exclusion)
Regarding B9, the binding result in experiment [4] is “binds”.

B10: envoplakin PRD R1952A (domain or fragment, human, UniProt Q92817 1822-2014, looked up)
chain: DDSFPIAGIYDTTTDNKCSIKTAVAKNMLDPITGQKLLEAQAATGGIVDLLSRERYSVHKAMERGLIENTSTQRLLNAQKAFTGIEDPVTKKRLSVGEAVQKGWMPRESVLPHLQVQHLTGGLIDPKRTGAIPIQQALLSGMISEELAQLLQDESSYEKDLTDPISKERLSYKEAMGRCRKDPLSGLLLLPAA
notes: envoplakin, human, plakin repeat domain, residues Asp1822-Ala2014, mutant R1952A; 15N-labelled for NMR; source: E. coli BL21(DE3), purified (HisTrap, TEV cleavage, S75 size exclusion)
As to B10, the binding result in experiment [4] is reported as “binds”.

B11: envoplakin PRD K1988E (control mutation) (domain or fragment, human, UniProt Q92817 1822-2014, looked up)
chain: DDSFPIAGIYDTTTDNKCSIKTAVAKNMLDPITGQKLLEAQAATGGIVDLLSRERYSVHKAMERGLIENTSTQRLLNAQKAFTGIEDPVTKKRLSVGEAVQKGWMPRESVLPHLQVQHLTGGLIDPKRTGRIPIQQALLSGMISEELAQLLQDESSYEKDLTDPISEERLSYKEAMGRCRKDPLSGLLLLPAA
notes: envoplakin, human, plakin repeat domain, residues Asp1822-Ala2014, mutant K1988E; 15N-labelled for NMR; source: E. coli BL21(DE3), purified (HisTrap, TEV cleavage, S75 size exclusion)
Regarding B11, the binding result in experiment [4] is reported as “binds”.

B12: envoplakin PRD K1994E (domain or fragment, human, UniProt Q92817 1822-2014, looked up)
chain: DDSFPIAGIYDTTTDNKCSIKTAVAKNMLDPITGQKLLEAQAATGGIVDLLSRERYSVHKAMERGLIENTSTQRLLNAQKAFTGIEDPVTKKRLSVGEAVQKGWMPRESVLPHLQVQHLTGGLIDPKRTGRIPIQQALLSGMISEELAQLLQDESSYEKDLTDPISKERLSYEEAMGRCRKDPLSGLLLLPAA
notes: envoplakin, human, plakin repeat domain, residues Asp1822-Ala2014, mutant K1994E; 15N-labelled for NMR; source: E. coli BL21(DE3), purified (HisTrap, TEV cleavage, S75 size exclusion)
Turning to B12, the binding result in experiment [4] is on record as “binds”.
